System: proteins that co-immunoprecipitated with DUX4-CTD constructs expressed in MB135 myoblasts
Test: LC-MS of proteins co-immunoprecipitated with DUX4-CTD (Table 1) and western validation
Type: binding, human
Design: key to 4. mL1dL2 + Dox + IFNG / 4. + IFNG mix / 4. longCTD + Dox + IFNG / 3. + IFNg + Dox longCTD / 3. + Dox longCTD / 3. + IFNG longCTD: peptide-spectrum matches (PSMs) per protein
Details: kind of count not given; for 4. mL1dL2 + Dox + IFNG: LC-MS value per protein co-immunoprecipitated with DUX4-CTD construct mL1dL2 in MB135 myoblasts; for 4. + IFNG mix: LC-MS value per protein co-immunoprecipitated from MB135 myoblasts, + IFNG mix sample (no Dox)
From the text: As an unbiased method to identify proteins that interact with the C-terminal region of DUX4, liquid chromatography mass spectroscopy (LC-MS) was used to identify proteins that co-immunoprecipitated with DUX4-CTD constructs expressed in MB135 myoblasts. In the first experiment, MB135iDUX4-CTD cells were used, either untreated, treated with doxycycline alone, or with both doxycycline and IFNG. In the second experiment, MB135iDUX4-CTD and MB135iDUX4mL1dL2 cells were used, both treated with doxycycline and IFNG, compared to these two cell lines untreated and combined as a control. Proteins with a minimum of 2 peptide spectrum matches (PSMs) in at least one sample that were identified in both experiments were assigned to one of ten categories (see Methods) to separate candidate interactors from other categories that might be co-purified because of obligate interactions (e.g., proteasome or ribosome) or might be less likely to be physiologically relevant (e.g., cytoskeletal proteins). Candidate interactors were then ranked based on the total PSMs for that protein across all samples.
Centrifugation at 2500 rcf at 4° C. for 5 min pelleted the nuclei, supernatant was discarded, and nuclei resuspended in 1 mL IP buffer pH 7.4 (25 mM Tris-HCl pH 7.5, 175 mM NaCl, 1 mM EDTA, 0.2% NP-40, 5% glycerol) and incubated for 1 hour at 4° C. with rotation then spun at 21000 rcf for 10 minutes at 4° C. to pellet insoluble debris. Protein concentration was determined using the Pierce BCA Protein Assay Kit (ThermoFisher, 23225). An equivalent amount of protein per sample was pre-cleared with Dynabeads Protein G (Invitrogen) bound to mouse IgG (Abcam #131368) for 1 hour at 4° C. with rotation. FLAG-tagged constructs were then immunoprecipitated with Dynabeads Protein G beads coupled to mouse anti-FLAG M2 mAb (Sigma F3165) for 3 hours at 4° C. with rotation. Beads were washed 3× with 1 mL IP buffer and eluted by adding 2× NuPage LDS Sample Buffer (Thermo Fisher, diluted from 4× with PBS) to the beads and heating for 10 minutes at 70° C.
For LC-MS, anti-FLAG immunoprecipitation was performed with beads cross-linked to the anti-FLAG antibody and the proteins competitively eluted with FLAG peptide. Eluted protein samples were electrophoresed into a NuPage 4-12% Bis-Tris gel, excised, and processed by the Fred Hutchinson Cancer Research Center Proteomics Core. Samples were reduced, alkylated, digested with trypsin, desalted, and run on the Orbitrap Eclipse Tribid Mass Spectrometer (Thermo Fisher). Proteomics data were analyzed using Proteome Discoverer 2.4 against a Uniprot human database that included common contaminants using Sequest HT and Percolator for scoring. […] Proteins that were identified in at least one sample from both independent experiments with at least 2 PSMs in one sample were assigned to one of ten categories: 1, candidates; 2, cytoskeletal associated; 3, cytoskeletal; 4, ribosome/translation associated; 5, proteasome associated; 6, membrane or extracellular; ER, golgi, or vesicle associated; 8, lipid metabolism; 9, chaperones; 10, nuclear import or nuclear membrane associated. The proteins in category 1 were further investigated for interactions with DUX4.

Row | Molecule | 4. mL1dL2 + Dox + IFNG | 4. + IFNG mix
1 | HNRNPM (protein) AAGVEAAAEVAATEIKMEEESGAPGVPSGNGAPGPKGEGERPAQNEKRKEKNIKRGGNRFEPYANPTKRYRAFITNIPFDVKWQSLKDLVKEKVGEVTYVELLMDAEGKSRGCAVVEFKMEESMKKAAEVLNKHSLSGRPLKVKEDPDGEHARRAMQKVMATTGGMGMGPGGPGMITIPPSILNNPNIPNEIIHALQAGRLGSTVFVANLDYKVGWKKLKEVFSMAGVVVRADILEDKDGKSRGIGTVTFEQSIEAVQAISMFNGQLLFDRPMHVKMDERALPKGDFFPPERPQQLPHGLGGIGMGLGPGGQPIDANHLNKGIGMGNIGPAGMGMEGIGFGINKMGGMEGPFGGGMENMGRFGSGMNMGRINEILSNALKRGEIIAKQGGGGGGGSVPGIERMGPGIDRLGGAGMERMGAGLGHGMDRVGSEIERMGLVMDRMGSVERMGSGIERMGPLGLDHMASSIERMGQTMERIGSGVERMGAGMGFGLERMAAPIDRVGQTIERMGSGVERMGPAIERMGLSMERMVPAGMGAGLERMGPVMDRMATGLERMGANNLERMGLERMGANSLERMGLERMGANSLERMGPAMGPALGAGIERMGLAMGGGGGASFDRAIEMERGNFGGSFAGSFGGAGGHAPGVARKACQIFVRNLPFDFTWKMLKDKFNECGHVLYADIKMENGKSKGCGVVKFESPEVAERACRMMNGMKLSGREIDVRIDRNA | 3 | –
2 | EEF1D (protein) MEAPLGSILSPCPGRAATGRAGTGRVGTGLRPPAVLQLCPLLAFYRCVRKMRSGKASCTLETVWEDKHKYEEAERRFYEHEATQAAASAQQLPAEGPAMNGPGQDDPEDADEAEAPDGGSRRDPRKSQDSRKPLQKKRKRSPKSGLGPADLALLGLSAERVWLDKSLFDQAESSYRQKLADVAAQAAWPPALAPWGLCTHGNQVACHHVTWGIWVNKSSFDQAERAFVEWSQALLLAPDGSRRQGTPNTGQQVAVPDLAHQPSPPVNGQPPLGSLQALVREVWLEKPRYDAAERGFYEALFDGHPPGKVRLQERAGLAEGARRGRRDRRGRNILGNKRAGLRRADGEAPSALPYCYFLQKDAEAPWLSKPAYDSAECRHHAAEALRVAWCLEAASLSHRPGPRSGLSVSSLRPNRKMATNFLAHEKIWFDKFKYDDAERRFYEQMNGPVAGASRQENGASVILRDIARARENIQKSLAGSSGPGASSGTSGDHGELVVRIASLEVENQSLRGVVQELQQAISKLEARLNVLEKSSPGHRATAPQTQHVSPMRQVEPPAKKPATPAEDDEDDDIDLFGSDNEEEDKEAAQLREERLRQYAEKKAKKPALVAKSSILLDVKPWDDETDMAQLEACVRSIQLDGLVWGASKLVPVGYGIRKLQIQCVVEDDKVGTDLLEEEITKFEEHVQSVDIAAFNKI | 7 | –
3 | KRT71 (protein) MSRQFTCKSGAAAKGGFSGCSAVLSGGSSSSFRAGSKGLSGGFGSRSLYSLGGVRSLNVASGSGKSGGYGFGRGRASGFAGSMFGSVALGPVCPTVCPPGGIHQVTVNESLLAPLNVELDPEIQKVRAQEREQIKALNNKFASFIDKVRFLEQQNQVLETKWELLQQLDLNNCKNNLEPILEGYISNLRKQLETLSGDRVRLDSELRNVRDVVEDYKKRYEEEINKRTAAENEFVLLKKDVDAAYANKVELQAKVESMDQEIKFFRCLFEAEITQIQSHISDMSVILSMDNNRNLDLDSIIDEVRTQYEEIALKSKAEAEALYQTKFQELQLAAGRHGDDLKNTKNEISELTRLIQRIRSEIENVKKQASNLETAIADAEQRGDNALKDARAKLDELEGALHQAKEELARMLREYQELMSLKLALDMEIATYRKLLESEECRMSGEFPSPVSISIISSTSGGSVYGFRPSMVSGGYVANSSNCISGVCSVRGGEGRSRGSANDYKDTLGKGSSLSAPSKKTSR | 21 | –
4 | EEF1A1 (protein) GKEKTHINIVVIGHVDSGKSTTTGHLIYKCGGIDKRTIEKFEKEAAEMGKGSFKYAWVLDKLKAERERGITIDISLWKFETSKYYVTIIDAPGHRDFIKNMITGTSQADCAVLIVAAGVGEFEAGISKNGQTREHALLAYTLGVKQLIVGVNKMDSTEPPYSQKRYEEIVKEVSTYIKKIGYNPDTVAFVPISGWNGDNMLEPSANMPWFKGWKVTRKDGNASGTTLLEALDCILPPTRPTDKPLRLPLQDVYKIGGIGTVPVGRVETGVLKPGMVVTFAPVNVTTEVKSVEMHHEALSEALPGDNVGFNVKNVSVKDVRRGNVAGDSKNDPPMEAAGFTAQVIILNHPGQISAGYAPVLDCHTAHIACKFAELKEKIDRRSGKKLEDGPKFLKSGDAAIVDMVPGKPMCVESFSDYPPLGRFAVRDMRQTVAVGVIKAVDKKAAGAGKVTKSAQKAQKAK | 3 | 4
5 | MYL12A (protein) MDLTTTMSSKRTKTKTKKRPQRATSNVFAMFDQSQIQEFKEAFNMIDQNRDGFIDKEDLHDMLASLGKNPTDEYLDAMMNEAPGPINFTMFLTMFGEKLNGTDPEDVIRNAFACFDEEATGTIQEDYLRELLTTMGDRFTDEEVDELYREAPIDKKGNFNYIEFTRILKHGAKDKDD | 30 | 9
6 | RRBP1 (protein) MDIYDTQTLGVVVFGGFMVVSAIGIFLVSTFSMKETSYEEALANQRKEMAKTHHQKVEKKKKEKTVEKKGKTKKKEEKPNGKIPDHDPAPNVTVLLREPVRAPAVAVAPTPVQPPIIVAPVATVPAMPQEKLASSPKDKKKKEKKVAKVEPAVSSVVNSIQVLTSKAAILETAPKEVPMVVVPPVGAKGNTPATGTTQGKKAEGTQNQSKKAEGAPNQGRKAEGTPNQGKKTEGTPNQGKKAEGTPNQGKKAEGTPNQGKKAEGAQNQGKKVDTTPNQGKKVEGAPTQGRKAEGAQNQAKKVEGAQNQGKKAEGAQNQGKKGEGAQNQGKKAEGAQNQGKKAEGAQNQGKKAEGAQNQGKKAEGAQNQGKKAEGAQNQGKKAEGAQNQGKKVEGAQNQGKKAEGAQNQGKKAEGAQNQGKKAEGAQNQGKKAEGAQNQGKKAEGAQNQGKKAEGAQNQGKKAEGAQNQGKKVEGAQNQGKKAEGAQNQGKKAEGAQNQGKKAEGAQNQGQKGEGAQNQGKKTEGAQGKKAERSPNQGKKGEGAPIQGKKADSVANQGTKVEGITNQGKKAEGSPSEGKKAEGSPNQGKKADAAANQGKKTESASVQGRNTDVAQSPEAPKQEAPAKKKSGSKKKGEPGPPDADGPLYLPYKTLVSTVGSMVFNEGEAQRLIEILSEKAGIIQDTWHKATQKGDPVAILKRQLEEKEKLLATEQEDAAVAKSKLRELNKEMAAEKAKAAAGEAKVKKQLVAREQEITAVQARMQASYREHVKEVQQLQGKIRTLQEQLENGPNTQLARLQQENSILRDALNQATSQVESKQNAELAKLRQELSKVSKELVEKSEAVRQDEQQRKALEAKAAAFEKQVLQLQASHRESEEALQKRLDEVSRELCHTQSSHASLRADAEKAQEQQQQMAELHSKLQSSEAEVRSKCEELSGLHGQLQEARAENSQLTERIRSIEALLEAGQARDAQDVQASQAEADQQQTRLKELESQVSGLEKEAIELREAVEQQKVKNNDLREKNWKAMEALATAEQACKEKLLSLTQAKEESEKQLCLIEAQTMEALLALLPELSVLAQQNYTEWLQDLKEKGPTLLKHPPAPAEPSSDLASKLREAEETQSTLQAECDQYRSILAETEGMLRDLQKSVEEEEQVWRAKVGAAEEELQKSRVTVKHLEEIVEKLKGELESSDQVREHTSHLEAELEKHMAAASAECQNYAKEVAGLRQLLLESQSQLDAAKSEAQKQSDELALVRQQLSEMKSHVEDGDIAGAPASSPEAPPAEQDPVQLKTQLEWTEAILEDEQTQRQKLTAEFEEAQTSACRLQEELEKLRTAGPLESSETEEASQLKERLEKEKKLTSDLGRAATRLQELLKTTQEQLAREKDTVKKLQEQLEKAEDGSSSKEGTSV | 4 | 12

Reference: US20250339531A1, “DUX4 POLYPEPTIDES AND NUCLEIC ACIDS FOR TREATING INFLAMMATORY AND AUTOIMMUNE CONDITIONS” (Fred Hutchinson Cancer Center, priority 2021, published 2025)
